Test results as given in article PMC9616769.
Ends that are not written are not given here. * marks the point of attachment. pNA = O=[N+]([O-])c1ccc(N*)cc1

Target: NT-mini (catalytically competent fragment of human neurotrypsin, Gly497-Leu875) (human)

| Km of cleavage of the pNa peptide by NT-mini (Michaelis-Menten; 1 µM enzyme, 37 °C, 5 mM CaCl2, GF buffer pH 8) | Binder |
| --- | --- |
| 17.2 mM | GLVEK-pNA (also: termed β-peptide, meaning not given here) [β-(5 mer) peptide with a C-terminal p-nitroaniline] |
| 6.16 mM | KGLVEK-pNA (also: termed β-peptide, meaning not given here) [β-peptide (6-mer, KGLVEK) with a C-terminal p-nitroaniline] |
